Test results: patent US20100255485A1, “BIOMARKERS FOR THE ONSET OF NEURODEGENERATIVE DISEASES” (priority 2007, published 2010)

Tests used:
SOD1(G93A) mice [1] = test: Intramuscular Salubrinal into one hindlimb of SOD1(G93A) mice: ER stress, UPR, microglia activation, neuromuscular junctions; format: in vivo
embryonic motor neuron = conditions: cited from earlier work
motoneurons = conditions: in vivo; cited from earlier work
SOD1(G93A) mice [2] = test: Intramuscular CNTF in SOD1(G93A) mice: stress responses in VUL MNs and microglia activation; format: in vivo
SOD1(G93A) mice [3] = conditions: intramuscular applications of CNTF; stated as known effect; cited from earlier work
[4] = test system: murine models of inherited progressive motor degeneration; conditions: CNTF and/or BDNF; cited from earlier work
[5] = early treatment P14 until P32, analyzed at P39
[6] = early treatment P14 until P32, analyzed at P53
[7] = late treatment P39 until P50, analyzed at P53
[8] = CNTF intramuscular from P28 to P40

With `O=C(/C=C/c1ccccc1)NC(NC(=S)Nc1cccc2cccnc12)C(Cl)(Cl)Cl` (centres unmarked) [Salubrinal] the “disease process during the Salubrinal treatments” value (SOD1(G93A) mice [1]; early and late treatments taken together) was “partially reversed”, the “disease process during administration” value (SOD1(G93A) mice [1]; early treatment P14 until P32) was “effectively arrested” and the UPR (SOD1(G93A) mice [1]; [5]) was “no evidence of a UPR”. For the same molecule, the microglia activation (SOD1(G93A) mice [1]; [5]) was “no microglia activation”, the “levels of BiP” value (SOD1(G93A) mice [1]; early treatment P14 until P32, analyzed at P39 (7 days after discontinuation)) was “low levels” and the “loss of synaptic vesicles at neuromuscular junctions” value (SOD1(G93A) mice [1]; [6]) was “no loss”. For the same molecule, the microglia activation (SOD1(G93A) mice [1]; [6]) was “mild microglia activation”, the UPR (SOD1(G93A) mice [1]; early treatment P14 until P32, analyzed at P53 (21 days after discontinuation)) was “early signs of a UPR” and the UPR (SOD1(G93A) mice [1]; [7]) was “mild UPR”. The “loss of neuromuscular junction synaptic vesicles” value (SOD1(G93A) mice [1]; [7]) was “no loss” and the microglia activation (SOD1(G93A) mice [1]; [7]) was “mild microglia activation”.

For IGF-1: neurotrophic factor, the “embryonic motor neuron survival in culture” value (embryonic motor neuron) is given as “enhanced”.

In the case of LIF: cytokine, the “embryonic motor neuron survival in culture” value (embryonic motor neuron) is listed as “enhanced”.

B1: GDNF: neurotrophic factor (protein, UniProt P39905 78-211, looked up)
Glial cell line-derived …: SPDKQMAVLPRRERNRQAAAANPENSRGKGRRGQRGKNRGCVLTAIHLNVTDLGLGYETKEELIFRYCSGSCDAAETTYDKILKNLSRNRRLVSDKVGQACCRPIAFDDDLSFLDDNLVYHILRKHSAKRCGCI
For B1, the “embryonic motor neuron survival in culture” value (embryonic motor neuron) is listed as “enhanced” and the “motoneuronal death occurring naturally during embryonic development” value (motoneurons) is listed as “reduction”.

B2: cardiotrophin-1: cytokine present in embryonic muscle (protein, UniProt Q16619 1-201, looked up)
Cardiotrophin-1: MSRREGSLEDPQTDSSVSLLPHLEAKIRQTHSLAHLLTKYAEQLLQEYVQLQGDPFGLPSFSPPRLPVAGLSAPAPSHAGLPVHERLRLDAAALAALPPLLDAVCRRQAELNPRAPRLLRRLEDAARQARALGAAVEALLAALGAANRGPRAEPPAATASAASATGVFPAKVLGLRVCGLYREWLSRTEGDLGQLLPGGSA
For B2, the “embryonic motor neuron survival in culture” value (embryonic motor neuron) is listed as “enhanced” and the “motoneuronal death occurring naturally during embryonic development” value (motoneurons) is listed as “reduction”.

B3: CNTF: CNTF rat recombinant protein (Sigma Aldrich); specific stress-protecting factor (protein, UniProt P20294 1-200, looked up)
Ciliary neurotrophic factor: MAFAEQTPLTLHRRDLCSRSIWLARKIRSDLTALMESYVKHQGLNKNINLDSVDGVPVASTDRWSEMTEAERLQENLQAYRTFQGMLTKLLEDQRVHFTPTEGDFHQAIHTLMLQVSAFAYQLEELMVLLEQKIPENEADGMPATVGDGGLFEKKLWGLKVLQELSQWTVRSIHDLRVISSHQMGISALESHYGAKDKQM
With B3 the “upregulation of BiP in VUL MNs” value (SOD1(G93A) mice [2]; CNTF intramuscular from P20 to P28, before disease onset) was “completely prevented”, the UPR/UPS reaction (SOD1(G93A) mice [2]; [8]) was “effectively prevented” and the “VUL MN BiP and Pi-elF2a signals” value (SOD1(G93A) mice [2]; [8]) was “normalized”. For the same molecule, the “activation of microglia on the spinal cord side ipsilateral to the treatment” value (SOD1(G93A) mice [2]; [8]) was “reduced”, the “downregulation of stress-related protective pathways in VUL MNs” value (SOD1(G93A) mice [2]; [8]) was “counteracted” and the “axonal pathology in VUL MNs” value (SOD1(G93A) mice [3]) was “effectively attenuates”. The disease progression (SOD1(G93A) mice [3]) was “slows”, the “embryonic motor neuron survival in culture” value (embryonic motor neuron) was “enhanced” and the “motoneuronal death occurring naturally during embryonic development” value (motoneurons) was “reduction”. The “protective effect in two murine models of inherited progressive motor degeneration” value [4] was “protective effect”.

B4: NT-4: member of the neurotrophin family (protein, UniProt P34130 81-210, looked up)
Neurotrophin-4: GVSETAPASRRGELAVCDAVSGWVTDRRTAVDLRGREVEVLGEVPAAGGSPLRQYFFETRCKADNAEEGGPGAGGGGCRGVDRRHWVSECKAKQSYVRALTADAQGRVGWRWIRIDTACVCTLLSRTGRA
For B4, the “embryonic motor neuron survival in culture” value (embryonic motor neuron) is given as “enhanced”.

B5: BDNF: member of the neurotrophin family (protein, UniProt P23560 19-247, looked up)
Neurotrophic factor BDNF …: APMKEANIRGQGGLAYPGVRTHGTLESVNGPKAGSRGLTSLADTFEHVIEELLDEDQKVRPNEENNKDADLYTSRVMLSSQVPLEPPLLFLLEEYKNYLDAANMSMRVRRHSDPARRGELSVCDSISEWVTAADKKTAVDMSGGTVTVLEKVPVSKGQLKQYFYETKCNPMGYTKEGCRGIDKRHWNSQCRTTQSYVRALTMDSKKRIGWRFIRIDTSCVCTLTIKRGR
For B5, the “embryonic motor neuron survival in culture” value (embryonic motor neuron) is listed as “enhanced”, the “motoneuronal death occurring naturally during embryonic development” value (motoneurons) is listed as “reduction” and the “protective effect in two murine models of inherited progressive motor degeneration” value [4] is listed as “protective effect”.

B6: NT-3: member of the neurotrophin family (protein, UniProt P20783 139-257, looked up)
Neurotrophin-3: YAEHKSHRGEYSVCDSESLWVTDKSSAIDIRGHQVTVLGEIKTGNSPVKQYFYETRCKEARPVKNGCRGIDDKHWNSQCKTSQTYVRALTSENNKLVGWRWIRIDTSCVCALSRKIGRT
For B6, the “embryonic motor neuron survival in culture” value (embryonic motor neuron) is listed as “enhanced”.
